Data reported in US20160051704A1, “MOLECULAR IMAGING PROBES FOR LUNG CANCER INTRAOPERATIVE GUIDANCE” (H. Lee Moffitt Cancer Center and Research Institute, Inc., priority 2013, published 2016).

Target: T1, delta opioid receptor (δOR) on HCT-116/δOR cells, P41143
T1 chain: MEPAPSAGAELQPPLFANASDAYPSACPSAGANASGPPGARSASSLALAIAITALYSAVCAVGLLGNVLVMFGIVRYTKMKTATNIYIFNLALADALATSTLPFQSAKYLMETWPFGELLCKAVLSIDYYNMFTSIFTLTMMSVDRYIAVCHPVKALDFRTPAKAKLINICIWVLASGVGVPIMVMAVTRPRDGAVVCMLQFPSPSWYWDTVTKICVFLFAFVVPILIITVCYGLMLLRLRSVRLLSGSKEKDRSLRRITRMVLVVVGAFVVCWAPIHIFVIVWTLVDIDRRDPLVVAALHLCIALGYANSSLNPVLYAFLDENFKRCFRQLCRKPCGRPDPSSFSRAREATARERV
Assay: in cyto time-resolved fluorescence saturation binding on HCT-116/δOR cells

B1: Europium (Eu)-diethylenetriaminepentaacetic acid (DTPA)[D-Pen2, L-Cys5] enkephalin (DPLCE) (peptide)
chain: YCGFC
modifications: not checked
Bmax: 3.01e+06 AFU
